Experimental data reported in article PMC11964946.

Target: Vicia altissima seed lectin (VICALTA) (Vicia altissima)
Assay: native gel or EMSA; native PAGE on Mini-PROTEAN TGX 4%-20% precast gels (single band at 87 kDa), compared with SDS-PAGE (single band at 38 kDa); purified seed lectin

With “Vicia altissima seed lectin (VICALTA) (natural protein)” the stoichiometry N was 2.
